In PMC10967930:

Assays:
[1] = target: human PF4 isolated from human platelets (human); test: other fluorescence titration
[2] = target: full-length SARS-CoV-2 spike protein of original COVID-19 (SARS-CoV-2) (UniProt P0DTC2); test: ELISA

Substance	Kd [1]	OD at 450 nm [2]
full-length SARS-CoV-2 spike protein of original COVID-19 (from UniProt P0DTC2) (natural protein)	586 nM	–
human PF4 isolated from human platelets (natural protein)	–	> 0.5
